Measurements published in article PMC12589613.

Molecular target: MDA5ΔN (residues 287–1025) (human) (UniProt Q9BYX4)
Sequence (Q9BYX4 287-1025, stated change not applied): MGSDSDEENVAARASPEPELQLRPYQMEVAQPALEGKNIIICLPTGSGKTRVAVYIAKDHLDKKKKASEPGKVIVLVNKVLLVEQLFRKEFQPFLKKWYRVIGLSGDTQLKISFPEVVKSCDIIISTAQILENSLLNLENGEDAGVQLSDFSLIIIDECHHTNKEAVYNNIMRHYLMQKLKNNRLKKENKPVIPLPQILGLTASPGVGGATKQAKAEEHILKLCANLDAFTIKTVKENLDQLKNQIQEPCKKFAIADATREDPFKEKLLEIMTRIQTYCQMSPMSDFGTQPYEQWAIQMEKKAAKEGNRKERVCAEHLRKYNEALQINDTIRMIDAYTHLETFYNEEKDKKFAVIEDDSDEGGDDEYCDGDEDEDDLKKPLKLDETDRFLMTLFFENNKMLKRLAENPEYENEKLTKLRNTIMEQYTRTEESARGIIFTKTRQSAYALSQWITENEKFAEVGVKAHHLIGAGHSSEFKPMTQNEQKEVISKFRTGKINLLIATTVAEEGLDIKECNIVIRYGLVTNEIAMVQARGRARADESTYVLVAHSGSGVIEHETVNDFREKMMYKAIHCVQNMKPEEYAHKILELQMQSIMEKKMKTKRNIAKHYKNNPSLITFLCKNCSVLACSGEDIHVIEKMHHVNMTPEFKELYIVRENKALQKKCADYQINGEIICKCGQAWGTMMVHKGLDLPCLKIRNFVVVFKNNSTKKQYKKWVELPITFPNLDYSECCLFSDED

B1: LGP2(E116A, E117A, D603A) (natural protein)
chain: MELRSYQWEVIMPALEGKNIIIWLPTGAGKTRAAAYVAKRHLETVDGAKVVVLVNRVHLVTQHGEEFRRMLDGRWTVTTLSGDMGPRAGFGHLARCHDLLICTAELLQMALTSPEAAEHVELTVFSLIVVDECHHTHKDTVYNVIMSQYLELKLQRAQPLPQVLGLTASPGTGGASKLDGAINHVLQLCANLDTWCIMSPQNCCPQLQEHSQQPCKQYNLCHRRSQDPFGDLLKKLMDQIHDHLEMPELSRKFGTQMYEQQVVKLSEAAALAGLQEQRVYALHLRRYNDALLIHDTVRAVDALAALQDFYHREHVTKTQILCAERRLLALFDDRKNELAHLATHGPENPKLEMLEKILQRQFSSSNSPRGIIFTRTRQSAHSLLLWLQQQQGLQTVDIRAQLLIGAGNSSQSTHMTQRDQQEVIQKFQDGTLNLLVATSVAEEGLDIPHCNVVVRYGLLTNEISMVQARGRARADQSVYAFVATEGSRELKRELINEALETLMEQAVAAVQKMDQAEYQAKIRDLQQAALTKRAAQAAQRENQRQQFPVEHVQLLCINCMVAVGHGSDLRKVEGTHHVNVNPNFSNYYNVSRDPVVINKVFKAWKPGGVISCRNCGEVWGLQMIYKSVKLPVLKVRSMLLETPQGRIQAKKWSRVPFSVPDFDFLQHCAENLSDLSLD
**Q.** Which proportion of MDA5ΔN translocation events that were stopped (immobile) on 11.6-kb dsRNA with LGP2(intermut), smTIRF does the source give for B1 here?
**A.** 23%
